In publication PMC12591191, “SIRT6 Lysine‐Demyristoylates ATF2 to Ameliorate Vascular Injury via PRKCD/VE‐Cadherin Pathway Regulating Vascular Endothelial Barrier” (Advanced Science, 2025):
Where no end group is shown, it is not given here. The star is where a group is joined. Biotin = O=C1N[C@H]2[C@H](CS[C@H]2CCCCC(=O)*)N1; Myristoyl = CCCCCCCCCCCCCC(=O)*

Columns and labels:
Test in all cases: BLI; Octet Red96, 96 well plates, PBS-T buffer (1X PBS, 0.05% tween-20); 120 µM biotinylated peptide attached to the sensor; analytes (SIRT6/SIRT6 mutants) from 0.18 to 5.5 µM; also run with cofactors (5 mM Mg2+, Zn2+, ATP, ADP, AMP, cAMP, NAD+)
Settings in all cases: both partners purified
[1] = target: T1, Wild-type SIRT6 (Sirtuin 6) (human, UniProt Q8N6T7 1-355)
T1 construct: human SIRT6, full length (1-355aa), from pUC57-SIRT6 into pET28a; no tag cleavage is described; also called SIRT6 WT; source: E. coli ArcticExpress (DE3), purified (Ni Sepharose); not shown: His-tag, N-terminal, kept; Flag, C-terminal, kept

SIRT6 H133Y = target: T2, SIRT6 H133Y (human, UniProt Q8N6T7 1-355, H133Y)
T2 construct: human SIRT6, full length (1-355aa), pET28a-SIRT6H133Y; also called dSIRT6; dSIRT6 (H133Y); source: E. coli ArcticExpress (DE3), purified (Ni Sepharose); not shown: His-tag, N-terminal, kept; Flag, C-terminal, kept

SIRT6 S56Y = target: T3, SIRT6 S56Y (human, UniProt Q8N6T7 1-355, S56Y)
T3 construct: human SIRT6, full length (1-355aa), pET28a-SIRT6S56Y; also called dSIRT6 variant; source: E. coli ArcticExpress (DE3), purified (Ni Sepharose); not shown: His-tag, N-terminal, kept; Flag, C-terminal, kept

SIRT6 R65A = target: T4, SIRT6 R65A (human, UniProt Q8N6T7 1-355, R65A)
T4 construct: human SIRT6, full length (1-355aa), pET28a-SIRT6R65A; also called dSIRT6 variant; source: E. coli ArcticExpress (DE3), purified (Ni Sepharose); not shown: His-tag, N-terminal, kept; Flag, C-terminal, kept
T4 sequence (Q8N6T7 whole entry R65A): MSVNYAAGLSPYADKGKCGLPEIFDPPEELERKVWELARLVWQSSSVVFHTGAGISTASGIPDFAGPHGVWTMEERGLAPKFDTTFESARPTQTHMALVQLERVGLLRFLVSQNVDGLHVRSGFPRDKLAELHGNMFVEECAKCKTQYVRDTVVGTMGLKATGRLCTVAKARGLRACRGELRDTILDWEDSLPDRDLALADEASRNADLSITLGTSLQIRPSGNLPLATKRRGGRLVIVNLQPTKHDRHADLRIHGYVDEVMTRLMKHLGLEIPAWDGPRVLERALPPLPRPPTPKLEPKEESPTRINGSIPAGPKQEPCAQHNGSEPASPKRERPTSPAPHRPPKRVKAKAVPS

T1 sequence (Q8N6T7 whole entry): as the sequence (Q8N6T7 whole entry R65A) above, with A65R counted along it
T2 sequence (Q8N6T7 whole entry H133Y): as the sequence (Q8N6T7 whole entry R65A) above, with A65R, H133Y counted along it
T3 sequence (Q8N6T7 whole entry S56Y): as the sequence (Q8N6T7 whole entry R65A) above, with S56Y, A65R counted along it

Kd [1]: 8.1 ± 0.96 µM | binding result (SIRT6 H133Y): binds | binding result (SIRT6 S56Y): binds | binding result (SIRT6 R65A): binds
B1: B-H3K9^Myr-5R (biotin-KQTARK^MyrSTGGKARRRRR) (peptide)
peptide: Biotin-KQTARK(Myristoyl)STGGKARRRRR
notes: histone H3 N-terminal stretch around K9; five arginine residues added at the C-terminus so that the peptide is soluble in water; also called myristoylated peptide; source: synthetic peptide (Boster Biological Technology)
